Patent US8236512B1, “Methods of developing terpene synthase variants” (Amyris, Inc., priority 2011, dated 2012)

Experiments:
[1] = test system: CC(C)=CCC/C(C)=C/CC/C(C)=C/CO[P@@](=O)(O)OP(=O)(O)O; test: Steady-state kinetics of purified farnesene synthase variant FS_B_5.3; type: biochemical, Artemisia annua; conditions: other: purified enzyme, 20.0 °C
[2] = test system: CC(C)=CCC/C(C)=C/CC/C(C)=C/CO[P@@](=O)(O)OP(=O)(O)O; test: cells, lysate or membranes named; conditions: other: purified enzyme, steady-state; 20.0 °C

Chain of Artemisia annua β-farnesene synthase, wild type, SEQ ID NO: 111 (FS_Aa_Ec coding sequence, SEQ ID NO: 62) (Artemisia annua) (chain, as listed by the source): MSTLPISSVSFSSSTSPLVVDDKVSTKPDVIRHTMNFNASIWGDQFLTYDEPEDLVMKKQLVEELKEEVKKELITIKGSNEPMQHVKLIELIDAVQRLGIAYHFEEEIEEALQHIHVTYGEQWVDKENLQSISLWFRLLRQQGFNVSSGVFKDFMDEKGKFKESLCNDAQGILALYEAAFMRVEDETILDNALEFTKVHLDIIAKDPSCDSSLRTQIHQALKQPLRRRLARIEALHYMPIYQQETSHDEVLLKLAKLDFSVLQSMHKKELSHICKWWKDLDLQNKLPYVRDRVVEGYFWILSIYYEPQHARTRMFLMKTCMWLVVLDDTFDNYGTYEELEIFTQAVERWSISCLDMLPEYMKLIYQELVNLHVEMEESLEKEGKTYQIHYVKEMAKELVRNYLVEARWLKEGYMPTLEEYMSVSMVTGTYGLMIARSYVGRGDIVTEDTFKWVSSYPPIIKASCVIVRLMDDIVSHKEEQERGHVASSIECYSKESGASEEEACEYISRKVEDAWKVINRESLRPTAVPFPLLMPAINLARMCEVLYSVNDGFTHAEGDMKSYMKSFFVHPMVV

Substance | Km [1] | kcat [1] | Km [2] | kcat [2]
Artemisia annua β-farnesene synthase (SEQ ID NO: 111) variant FS_B_5.3 F11S/V24D/M35T/T196S/Y288F/T319S/I434T/T446N/I460V/V467I (FS_B_5.3_Ec; parent coding sequence FS_B, SEQ ID NO: 119) (Artemisia annua; F11S/I437T/I463V/M35T/T196S/T319S/T449N/V24D/V470I/Y288F) | 1.18 ± 0.44 µM | 0.093 ± 0.009 s⁻¹ |  | 
Artemisia annua β-farnesene synthase, wild type, SEQ ID NO: 111 (FS_Aa_Ec coding sequence, SEQ ID NO: 62) (Artemisia annua) |  |  | 0.58 ± 0.19 µM | 0.071 s⁻¹
